PMC5123862, “Characterization of human translesion DNA synthesis across a UV-induced DNA lesion” (eLife, 2016)

Assays:
[1] = molecular target: T1, Cy5-labeled PCNA (human PCNA site-specifically labeled with Cy5 at amino acid residue 107) (human, UniProt P12004 1-261, Cy5 at amino acid residue 107); test: FRET or BRET; holoenzyme assembly: RFC (100 nM), Cy5-PCNA (100 nM) and forked Cy3-P/T DNA (100 nM, biotin/Neutravidin) pre-incubated with 1 mM ATP, titrated with unlabeled pol η; FRET between DNA and PCNA (I670/I570); one-site binding model; room temperature; ionic strength 200 mM; conditions: both partners purified
T1 sequence (P12004 whole entry N107C): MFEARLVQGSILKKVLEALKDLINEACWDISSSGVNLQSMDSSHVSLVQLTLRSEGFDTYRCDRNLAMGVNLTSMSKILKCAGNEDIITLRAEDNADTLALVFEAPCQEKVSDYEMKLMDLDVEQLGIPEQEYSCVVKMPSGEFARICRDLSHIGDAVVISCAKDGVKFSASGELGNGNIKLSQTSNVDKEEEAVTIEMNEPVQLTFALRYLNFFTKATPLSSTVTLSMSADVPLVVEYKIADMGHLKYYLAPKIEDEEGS

[2] = molecular target: T1, Cy5-labeled PCNA (human PCNA …); test: FRET or BRET; competitive inhibition: pre-assembled Cy3-Pol η•Cy5-PCNA complex (200 nM Cy3-Pol η, 20 nM Cy5-PCNA) titrated with unlabeled competitor (PCNA, (Ub)3-PCNA or pol η, 0-5 μM); dose-response model, Ki from IC50 by the Munson-Rodbard solution; room temperature; replication assay buffer, ionic strength 200 mM; conditions: both partners purified

- KD for Cy5-PCNA loaded on forked Cy3-P/T DNA (pol η holoenzyme formation) [1]: 28 ± 5.38 nM
- Ki [2]: 112 ± 15.5 nM
B1: Pol η (human DNA polymerase eta, full length, wild type, unlabeled) (enzyme, UniProt Q9Y253 1-713, looked up)
chain: MATGQDRVVALVDMDCFFVQVEQRQNPHLRNKPCAVVQYKSWKGGGIIAVSYEARAFGVTRSMWADDAKKLCPDLLLAQVRESRGKANLTKYREASVEVMEIMSRFAVIERASIDEAYVDLTSAVQERLQKLQGQPISADLLPSTYIEGLPQGPTTAEETVQKEGMRKQGLFQWLDSLQIDNLTSPDLQLTVGAVIVEEMRAAIERETGFQCSAGISHNKVLAKLACGLNKPNRQTLVSHGSVPQLFSQMPIRKIRSLGGKLGASVIEILGIEYMGELTQFTESQLQSHFGEKNGSWLYAMCRGIEHDPVKPRQLPKTIGCSKNFPGKTALATREQVQWWLLQLAQELEERLTKDRNDNDRVATQLVVSIRVQGDKRLSSLRRCCALTRYDAHKMSHDAFTVIKNCNTSGIQTEWSPPLTMLFLCATKFSASAPSSSTDITSFLSSDPSSLPKVPVTSSEAKTQGSGPAVTATKKATTSLESFFQKAAERQKVKEASLSSLTAPTQAPMSNSPSKPSLPFQTSQSTGTEPFFKQKSLLLKQKQLNNSSVSSPQQNPWSNCKALPNSLPTEYPGCVPVCEGVSKLEESSKATPAEMDLAHNSQSMHASSASKSVLEVTQKATPNPSLLAAEDQVPCEKCGSLVPVWDMPEHMDYHFALELQKSFLQPHSSNPQVVSAVSHQGKRNPKSPLACTNKRPRPEGMQTLESFFKPLTH
notes: human DNA polymerase eta (pol η), single subunit; N-terminal catalytic core residues 1-475, C-terminal portion residues 476-713; also called unlabeled pol η; source: recombinant, purified from the pET21A-hPol η expression vector (modified protocol of Li et al., 2013)
